Sequences and labels used below:
T1: human LAG3 (construct not stated) (human, UniProt P18627 23-450, limits assumed)
T1 construct: also called human LAG3 protein; antigen
T1 sequence (looked up): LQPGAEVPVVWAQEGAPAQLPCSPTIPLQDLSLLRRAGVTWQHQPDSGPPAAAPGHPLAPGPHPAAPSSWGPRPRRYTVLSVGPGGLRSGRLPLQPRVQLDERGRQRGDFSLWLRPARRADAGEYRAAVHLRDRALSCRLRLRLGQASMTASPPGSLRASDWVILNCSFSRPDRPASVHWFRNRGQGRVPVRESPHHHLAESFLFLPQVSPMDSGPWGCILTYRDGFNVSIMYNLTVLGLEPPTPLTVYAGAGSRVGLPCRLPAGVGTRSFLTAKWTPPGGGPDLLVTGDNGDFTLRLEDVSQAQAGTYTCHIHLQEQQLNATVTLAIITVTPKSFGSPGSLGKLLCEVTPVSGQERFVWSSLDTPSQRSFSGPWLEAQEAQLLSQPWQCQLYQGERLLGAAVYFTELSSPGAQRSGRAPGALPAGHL

B1: B6x147(H3807) (bispecific antibody, human IgG1, kappa, N297A)
heavy: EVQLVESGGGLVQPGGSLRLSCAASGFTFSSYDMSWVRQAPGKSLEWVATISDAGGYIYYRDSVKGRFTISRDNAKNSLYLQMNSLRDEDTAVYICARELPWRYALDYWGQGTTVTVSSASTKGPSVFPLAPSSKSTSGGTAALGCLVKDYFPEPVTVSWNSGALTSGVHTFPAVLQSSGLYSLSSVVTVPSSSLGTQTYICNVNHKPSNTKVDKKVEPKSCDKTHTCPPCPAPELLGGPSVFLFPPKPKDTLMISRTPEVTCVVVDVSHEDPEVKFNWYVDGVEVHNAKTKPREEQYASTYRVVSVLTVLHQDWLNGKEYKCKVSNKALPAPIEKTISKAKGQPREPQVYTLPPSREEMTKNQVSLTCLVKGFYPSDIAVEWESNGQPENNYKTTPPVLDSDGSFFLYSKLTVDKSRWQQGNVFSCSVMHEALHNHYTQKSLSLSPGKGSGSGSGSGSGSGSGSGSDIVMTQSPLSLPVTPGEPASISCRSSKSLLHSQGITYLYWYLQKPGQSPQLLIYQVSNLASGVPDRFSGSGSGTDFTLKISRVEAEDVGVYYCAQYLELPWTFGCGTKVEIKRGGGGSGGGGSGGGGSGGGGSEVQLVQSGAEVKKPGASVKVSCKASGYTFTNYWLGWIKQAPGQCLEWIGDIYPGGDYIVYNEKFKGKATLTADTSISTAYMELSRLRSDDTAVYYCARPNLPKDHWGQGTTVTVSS
light: DIQMTQSPSSLSASVGDRVTITCKASQDVTPAVAWYQQKPGKAPKLLIYSTSSRYTGVPSRFSGSGSGTDFTFTISSLQPEDIATYYCQQHYTTPLTFGQGTKLEIKRTVAAPSVFIFPPSDEQLKSGTASVVCLLNNFYPREAKVQWKVDNALQSGNSQESVTEQDSKDSTYSLSSTLTLSKADYEKHKVYACEVTHQGLSSPVTKSFNRGEC
B2: 147xH12 (bispecific antibody, human IgG4 S228P, kappa)
heavy: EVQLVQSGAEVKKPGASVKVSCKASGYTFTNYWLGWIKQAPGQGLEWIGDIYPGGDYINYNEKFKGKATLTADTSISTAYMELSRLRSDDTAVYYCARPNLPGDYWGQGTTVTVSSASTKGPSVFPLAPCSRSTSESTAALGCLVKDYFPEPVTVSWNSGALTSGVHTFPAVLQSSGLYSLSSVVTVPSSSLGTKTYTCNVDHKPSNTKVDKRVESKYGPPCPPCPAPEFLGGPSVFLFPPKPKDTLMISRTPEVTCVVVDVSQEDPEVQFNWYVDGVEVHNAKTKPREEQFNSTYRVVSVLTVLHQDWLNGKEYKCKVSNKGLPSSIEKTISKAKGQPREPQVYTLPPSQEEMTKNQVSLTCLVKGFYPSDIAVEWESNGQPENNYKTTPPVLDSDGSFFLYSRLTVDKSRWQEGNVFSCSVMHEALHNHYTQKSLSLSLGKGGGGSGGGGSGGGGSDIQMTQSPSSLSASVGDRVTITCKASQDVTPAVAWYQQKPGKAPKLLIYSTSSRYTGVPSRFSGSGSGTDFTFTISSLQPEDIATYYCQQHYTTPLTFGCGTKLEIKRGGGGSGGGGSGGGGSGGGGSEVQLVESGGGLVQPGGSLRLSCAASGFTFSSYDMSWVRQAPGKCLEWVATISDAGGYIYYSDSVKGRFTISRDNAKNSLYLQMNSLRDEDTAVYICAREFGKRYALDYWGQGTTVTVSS
light: DIVMTQSPLSLPVTPGEPASISCRSSKSLLHSNGITYLYWYLQKPGQSPQLLIYQVSNLASGVPDRFSGSGSGTDFTLKISRVEAEDVGVYYCAQNLELPWTFGGGTKVEIKRTVAAPSVFIFPPSDEQLKSGTASVVCLLNNFYPREAKVQWKVDNALQSGNSQESVTEQDSKDSTYSLSSTLTLSKADYEKHKVYACEVTHQGLSSPVTKSFNRGEC
notes: also called A3L1
B3: 147(H3807)xB6 (bispecific antibody, human IgG4 S228P, kappa)
heavy: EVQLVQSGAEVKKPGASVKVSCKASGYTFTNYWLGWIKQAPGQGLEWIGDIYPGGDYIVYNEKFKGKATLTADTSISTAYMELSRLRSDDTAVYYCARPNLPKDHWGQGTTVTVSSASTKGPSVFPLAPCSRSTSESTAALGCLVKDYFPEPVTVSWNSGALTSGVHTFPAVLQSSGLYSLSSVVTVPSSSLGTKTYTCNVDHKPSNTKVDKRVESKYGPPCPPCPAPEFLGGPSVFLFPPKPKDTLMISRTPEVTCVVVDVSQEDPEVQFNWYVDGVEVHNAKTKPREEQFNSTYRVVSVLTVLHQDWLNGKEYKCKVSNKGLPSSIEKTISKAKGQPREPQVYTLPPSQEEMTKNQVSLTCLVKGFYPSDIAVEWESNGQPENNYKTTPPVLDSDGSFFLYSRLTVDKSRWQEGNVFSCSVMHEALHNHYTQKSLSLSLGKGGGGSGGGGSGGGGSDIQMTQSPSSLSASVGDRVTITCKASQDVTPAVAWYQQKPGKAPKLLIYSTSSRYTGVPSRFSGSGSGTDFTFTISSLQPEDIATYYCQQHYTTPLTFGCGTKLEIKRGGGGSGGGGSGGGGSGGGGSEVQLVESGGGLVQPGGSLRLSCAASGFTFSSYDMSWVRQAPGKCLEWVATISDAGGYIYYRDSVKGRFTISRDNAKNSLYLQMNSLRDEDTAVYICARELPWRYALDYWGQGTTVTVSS
light: B2 light with N33Q, N96Y
B4: Hu1210-22 (antibody, V domains shown)
VH: EVQLVESGGGLVQPGGSLRLSCAASGFTFSSYDMSWVRQAPGKSLEWVATISDGGGYIYYSDSVKGRFTISRDNAKNSLYLQMNSLRDEDTAVYICAREFGKRYALDYWGQGTTVTVSS
VL: DIQMTQSPSSLSASVGDRVTITCKASQDVTPAVAWYQQKPGKSPKLLIYSTSSRYTGVPSRFSGSGSGTDFTFTISSLQPEDIATYYCQQHYTTPLTFGQGTKLEIK
notes: Hu1210 VH.4b x Vk.1a; human gamma 1 / kappa constant domains
B5: Hu1210-16 (antibody, V domains shown)
VH: B4 VH with S44G, I95Y
VL: B4 VL with S43A
notes: Hu1210 VH.4a x Vk.1; human gamma 1 / kappa constant domains
B6: Hu1210-15 (antibody, V domains shown)
VH: B4 VH with S44G, A49S, I95Y
VL: B4 VL with S43A
notes: Hu1210 VH.4 x Vk.1; human gamma 1 / kappa constant domains
B7: Hu1210-13 (antibody, V domains shown)
VH: B4 VH with V5L, S44G, A49S, A75S, S78T, D88A, I95Y
VL: B4 VL with S43A
notes: Hu1210 VH.3 x Vk.1; human gamma 1 / kappa constant domains
B8: Hu1210-14 (antibody, V domains shown)
VH: B4 VH with V5L, A75S, S78T, D88A
VL: B4 VL with S43A
notes: Hu1210 VH.3a x Vk.1; human gamma 1 / kappa constant domains
B9: Hu1210-8 (antibody, V domains shown)
VH: B4 VH with Q13K, S44G, D88A, I95Y
VL: B4 VL
notes: Hu1210 VH.1a x Vk.1a; human gamma 1 / kappa constant domains
B10: Hu1210-3 (antibody, V domains shown)
VH: B4 VH with Q13K, D88A
VL: B4 VL with S43A
notes: Hu1210 VH.1b x Vk.1; human gamma 1 / kappa constant domains
B11: Hu1210-5 (antibody, V domains shown)
VH: B4 VH with Q13K, V37I, S44G, D88A, I95Y
VL: B4 VL with S43A
notes: Hu1210 VH.2a x Vk.1; human gamma 1 / kappa constant domains
B12: H12x147(H3807) (bispecific antibody, human IgG1, kappa, N297A)
heavy chain of H12 (IgG) - linker - scFv of 147(H3807) (VL - linker - VH): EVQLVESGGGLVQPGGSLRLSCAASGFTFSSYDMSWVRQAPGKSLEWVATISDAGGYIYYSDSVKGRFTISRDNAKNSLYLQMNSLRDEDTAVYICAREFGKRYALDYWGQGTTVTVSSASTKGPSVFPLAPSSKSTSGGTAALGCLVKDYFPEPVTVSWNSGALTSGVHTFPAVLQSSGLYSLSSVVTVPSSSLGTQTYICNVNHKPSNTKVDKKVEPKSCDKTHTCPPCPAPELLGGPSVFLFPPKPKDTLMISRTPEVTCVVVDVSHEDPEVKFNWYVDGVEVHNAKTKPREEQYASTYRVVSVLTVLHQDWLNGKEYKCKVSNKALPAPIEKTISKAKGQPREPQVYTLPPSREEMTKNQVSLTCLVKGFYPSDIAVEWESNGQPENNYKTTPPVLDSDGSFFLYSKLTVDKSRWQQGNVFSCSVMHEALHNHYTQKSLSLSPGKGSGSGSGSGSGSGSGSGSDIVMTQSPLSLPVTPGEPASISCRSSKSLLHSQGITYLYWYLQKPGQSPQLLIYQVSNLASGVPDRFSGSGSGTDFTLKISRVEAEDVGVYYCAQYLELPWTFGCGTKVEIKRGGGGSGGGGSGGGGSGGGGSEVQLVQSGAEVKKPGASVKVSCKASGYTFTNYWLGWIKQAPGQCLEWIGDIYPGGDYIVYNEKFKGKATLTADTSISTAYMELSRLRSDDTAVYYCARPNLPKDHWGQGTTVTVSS
light chain of H12: B1 light

The text below walks through data of patent US20220363763A1 (ABL BIO, published 2022).

Where a chain is given by its changes, count along the chain named.

T4 sequence (Q9NZQ7 19-239 limits assumed): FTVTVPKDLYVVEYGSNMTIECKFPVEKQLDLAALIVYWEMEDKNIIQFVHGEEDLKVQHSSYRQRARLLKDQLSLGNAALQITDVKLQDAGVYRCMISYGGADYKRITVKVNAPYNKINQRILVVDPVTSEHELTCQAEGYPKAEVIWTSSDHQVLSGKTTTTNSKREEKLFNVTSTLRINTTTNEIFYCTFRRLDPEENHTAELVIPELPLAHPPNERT
T5 sequence (Q9NZQ7 19-239 limits assumed): as above

The target of one assay is T2, human PD-L1 (construct not stated) (human, UniProt Q9NZQ7 19-239, limits assumed).
T2 construct: also called B7-H1 (PD-L1); PD-L1 protein
T2 sequence (Q9NZQ7 19-239 limits assumed): as above
Briefly: SPR Biacore, capture method. Here is the method:
(§1) The binding affinities of bispecific antibodies PD-L1 and LAG3 of the bispecific antibodies (BsAb; 147xH12, 147H3807xB6 and B6x147H3807) prepared in Example 3 to PD-L1 protein and human LAG3 protein were tested with BIACORE™ using a capture method.
On the technique in general: Surface plasmon resonance follows binding to a sensor surface in real time, without labels.
What is called Kd is a measure of binding affinity in units of concentration. Read a low Kd as tighter binding. B1: the dissociation constant (Kd) came out at 1.18 nM.

The molecule B2 returned a dissociation constant (Kd) of 27.4 nM.

B3 yielded a dissociation constant (Kd) of 5.94 nM.

The next assay addresses T1, human LAG3 (construct not stated). Briefly: SPR Biacore, capture method. As to the method: as §1
Take B1: the Kd is 8.87 nM.

For B2, binding was put at a Kd of 13.5 nM.

In turn, B3 registered an equilibrium dissociation constant (Kd) of 1.63 nM.

In another assay the target is T3, human PD-L1 expressed on mammalian cells (human, UniProt Q9NZQ7 19-290).
T3 construct: whole, on cells; also called PDL1-CHOK1 cells; PDL1-Raji cells
T3 sequence (Q9NZQ7 19-290): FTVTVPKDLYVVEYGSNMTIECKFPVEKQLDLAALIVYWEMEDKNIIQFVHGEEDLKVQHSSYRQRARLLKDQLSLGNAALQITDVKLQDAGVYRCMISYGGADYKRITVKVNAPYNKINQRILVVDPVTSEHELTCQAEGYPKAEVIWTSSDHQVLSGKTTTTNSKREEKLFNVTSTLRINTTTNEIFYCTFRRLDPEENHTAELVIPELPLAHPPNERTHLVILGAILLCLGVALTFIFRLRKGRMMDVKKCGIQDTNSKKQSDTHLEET
The experiment in a line: flow cytometry (MFI) on PDL1-CHOK1 cells; EC50 table has no unit, x axis Antibodies(nM). As to the method: (§2) To evaluate the antigen binding property, the humanized antibodies were analyzed for its binding to mammalian expressed PD-L1 by FACS. Briefly, PDL1-CHOK1 cells were firstly incubated with 5-fold serious diluted humanized antibodies starting at 2 μg/ml at RT for 1 hour. After wash by FACS buffer (PBS with 2% FBS), the alexa 488-anti-human IgG antibody was added to each well and incubated at RT for 1 hour. The MFI of Alexa 488 was evaluated by FACSAriaIII.
(In flow cytometry, cells or beads pass a laser one at a time.)
Usually EC50 stands for the concentration needed to bring the measured effect to its halfway point. Read a low EC50 as a more potent agent. Regarding B4, the EC50 came to 1.17 nM.

The next assay deals with T3, human PD-L1 expressed on mammalian cells. The description is as above. The source holds these as a separate data set. As to the method: as §2
As to B5, the EC50 was found to be 1.41 nM.

The molecule B6 came in with an EC50 of 2.04 nM.

Molecule B7 showed a concentration giving a half-maximal response (EC50) of 1.57 nM.

Molecule B8 had an EC50 of 1.46 nM.

Another assay concerns the target T4, human PD-L1-Fc protein (human, UniProt Q9NZQ7 19-239).
T4 construct: Coated on ELISA plates; also called huPD-L1; not shown: Fc part
The experiment in a line: ELISA on coated human PD-L1-Fc; EC50 table has no unit, x axis Ab(nM). Here is the method: (§3) To evaluate the antigen binding activity, the humanized antibodies were subjected to ELISA test. Briefly, microtiter plates were coated with human PD-L1-Fc protein at 0.1 μg/ml in PBS, 100 μl/well at 4° C. overnight, then blocked with 100 μl/well of 5% BSA. Five-fold dilutions of humanized antibodies starting from 10 μg/ml were added to each well and incubated for 1-2 hours at RT. The plates were washed with PBS/Tween and then incubate with […] antibody conjugated with Horse Radish Peroxidase (HRP) for 1 hour at RT. After washing, the plates were developed with TMB substrate and analyzed by spectrophotometer at OD 450-630 nm.
B4 gave an EC50 of 0.148 nM.

The target of another assay is T4, human PD-L1-Fc protein. The description is as above. This is another data set of the same source. Here is the method:
as §3
Consider B9, for which a half-maximal effect (EC50) was put at 0.186 nM.

The target in a further assay is T2, human PD-L1 (construct not stated). The experiment in a line: BLI Octet Red 96, affinity ranking. The source says:
To explore the binding kinetics of the humanized antibody, this example performed the affinity ranking by using Octet Red 96.
Background: Biolayer interferometry detects binding as a change in optical thickness at a sensor tip.
As a reminder, the koff is the first-order rate constant of dissociation. A higher koff goes with a short-lived complex. One may read the kon as a measure of how fast the partners come together. B10 gave a Kd of 2.64 nM, a koff of 0.000228 s⁻¹ and an on-rate (kon) of 86200 M⁻¹ s⁻¹.

In turn, B5 came in with a dissociation constant (Kd) of 3.14 nM, an off-rate (koff) of 0.000264 s⁻¹ and a kon of 84100 M⁻¹ s⁻¹.

In turn, B6 came in with a dissociation constant Kd of 4.45 nM, an off-rate constant (koff) of 0.00035 s⁻¹ and a kon of 78700 M⁻¹ s⁻¹.

The molecule B4 came in with a Kd of 2.56 nM, an off-rate (koff) of 0.00023 s⁻¹ and an on-rate constant (kon) of 90000 M⁻¹ s⁻¹.

B9: the Kd stood at 1.64 nM, the off-rate (koff) was 0.000127 s⁻¹ and the kon amounted to 77200 M⁻¹ s⁻¹.

B7 showed a Kd of 4.36 nM, a koff of 0.000366 s⁻¹ and a kon of 83800 M⁻¹ s⁻¹.

For B8, the Kd is 2.34 nM, the off-rate constant (koff) turned out to be 0.000197 s⁻¹ and the kon was found to be 84100 M⁻¹ s⁻¹.

In turn, B11 registered a Kd of 4.83 nM, a koff of 0.000383 s⁻¹ and an association rate constant (kon) of 79300 M⁻¹ s⁻¹.

In the next assay the target is T4, human PD-L1-Fc protein. The experiment in a line: ELISA on coated human PD-L1-Fc; EC50 table has no unit, x axis Ab(nM). This is another data set of the same source. Here is the method: as §3
Molecule B10 showed an EC50 of 0.186 nM.

The molecule B11 registered a half-maximal effective concentration (EC50) of 0.193 nM.

For another assay, the target named is T4, human PD-L1-Fc protein. The experiment in a line: ELISA on coated human PD-L1-Fc, panel PD-L1. The source says: To evaluate the binding activity to PD-L1 and LAG3 of the bispecific antibodies (BsAb; H12x147 and 147xH12) prepared in Example 3, the BsAb were subjected to ELISA test.
Broadly, the EC50 (read off the curve) is the concentration giving half of the maximal effect. A lower EC50 (read off the curve) goes with greater potency. Take B12: the “EC50 (read off the curve)” value was ~1 nM.

For the molecule B1, the “EC50 (read off the curve)” value was ~0.3 nM.

The next assay addresses T5, human PD-L1-his taq protein (human, UniProt Q9NZQ7 19-239, limits assumed).
T5 construct: also called recombinant PD-L1 protein; recombinant human PD-L1; not shown: his tag
Briefly: SPR Biacore T200, antibody captured, PD-L1-his injected. Here is the method: The binding of the humanized antibodies to recombinant PD-L1 protein (human PD-L1-his taq) was tested by BIACORE™ using a capture method. The HL1210-3 mouse mAb were captured using anti-mouse Fc antibody coated on a CM5 chip. A series dilution of human PD-L1-his taq protein was injected over captured antibody for 3 mins at a flow rate of […]. The antigen was allowed to dissociate for 900 s. All the experiments were carried out on a Biacore T200.
Turning to B5, the equilibrium dissociation constant (Kd) worked out at 0.672 nM, the koff was found to be 6.7e-05 s⁻¹ and the kon was found to be 99800 M⁻¹ s⁻¹.

The molecule B9 had a Kd of 0.767 nM, an off-rate constant (koff) of 7.17e-05 s⁻¹ and a kon of 93500 M⁻¹ s⁻¹.

For the molecule B8, the dissociation constant (Kd) is 0.435 nM, the koff is 5.29e-05 s⁻¹ and the association rate constant (kon) was 122000 M⁻¹ s⁻¹.

Another assay addresses T4, human PD-L1-Fc protein. The experiment in a line: ELISA on coated human PD-L1-Fc; EC50 table has no unit, x axis Ab(nM). This is another data set of the same source. As to the method:
as §3
In turn, B5 yielded an EC50 of 0.179 nM.

In the case of B6, the concentration for a half-maximal effect (EC50) was determined as 0.187 nM.

Take B7: the EC50 amounted to 0.187 nM.

B8 returned an EC50 of 0.163 nM.

The next assay addresses T3, human PD-L1 expressed on mammalian cells. Briefly: FACS receptor blocking on PDL1-CHOK1 cells, competitor Bio-PD1 (30 µg/ml). As to the method:
To evaluate the blocking effect of humanized antibodies on human PD-L1 expressed on mammalian cells to bind to its receptor PD-1, the FACS-based receptor blocking assay was employed. Briefly, PDL1-CHOK1 cells were firstly incubated with 3-fold serious diluted HL1210-3 mouse mAb starting at 20 μg/ml at RT for 1 hour. After wash by FACS buffer (PBS with 2% FBS), the biotin-labeled huPD-1 were added to each well and incubated at RT for 1 hour. Then, the Streptavidin-PE was added to each well for 0.5 hour post twice wash with FACS buffer. The mean florescence intensity (MFI) of PE was evaluated by FACSAriaIII.
In turn, B10 registered a TOP of 84.3.

In the case of B5, the TOP came out at 88.

In turn, B4 yielded a TOP of 85.8.

For the molecule B9, the TOP stood at 86.3.

For B8, the TOP turned out to be 79.6.

For the next assay the target is unchanged. The experiment in a line: flow cytometry (MFI) on PDL1-CHOK1 cells; EC50 table has no unit, x axis Antibodies(nM). The source holds these as a separate data set. Here is the method:
as §2
For B10, it took 1.37 nM to reach a half-maximal effect (EC50).

With B9, the midpoint of the response, the EC50, lay at 1.23 nM.

As for B11, a half-maximal response (EC50) required 1.43 nM.
